# Assay results published in the supplement of paper PMC9112550, “Optimization of the antimicrobial peptide Bac7 by deep mutational scanning” (BMC Biology, 2022).
# Tested on: Escherichia coli TOP10
# Test: shrunken log2 fold change of peptide-encoding DNA abundance (4.5 h post-induction vs induction); higher = less antimicrobial activity (less host growth inhibition)
# Details: time post-induction: 4.5 h; library: site-saturation at positions 5, 18, 19, 20
# 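Also: peptides expressed intracellularly from a pBAD plasmid library in pooled LB shake-flask culture, induced with 0.3% L-arabinose, DNA abundance read by NGS, three biological replicates, DESeq2 with apeglm shrinkage.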
row,Sequence,shrunken log2 fold change
1,RRIRCRPPRLPRPRPRPYAKPRP,-0.671
2,RRIRQRPPRLPRPRPRPRKNPRP,0.309
3,RRIRDRPPRLPRPRPRPASYPRP,-0.0767
4,RRIRKRPPRLPRPRPRPLIRPRP,-0.0949
5,RRIRMRPPRLPRPRPRPPWDPRP,0.931
6,RRIRFRPPRLPRPRPRPIHFPRP,-0.246
7,RRIRRRPPRLPRPRPRPRMIPRP,-0.136
8,RRIRARPPRLPRPRPRPNIPPRP,-0.223
9,RRIRHRPPRLPRPRPRPQINPRP,-0.827
10,RRIRDRPPRLPRPRPRPDPDPRP,0.671
11,RRIRVRPPRLPRPRPRPTDWPRP,0.255
12,RRIRPRPPRLPRPRPRPEWWPRP,0.0468
13,RRIRRRPPRLPRPRPRPHAHPRP,-0.00194
14,RRIRMRPPRLPRPRPRPMFWPRP,0.0479
15,RRIRMRPPRLPRPRPRPLHEPRP,0.545
16,RRIRSRPPRLPRPRPRPELTPRP,0.316
17,RRIRGRPPRLPRPRPRPTCKPRP,0.57
18,RRIRFRPPRLPRPRPRPKKAPRP,0.173
19,RRIRCRPPRLPRPRPRPGVLPRP,0.121
20,RRIRMRPPRLPRPRPRPINNPRP,-0.347
21,RRIRERPPRLPRPRPRPNFVPRP,0.0109
22,RRIRYRPPRLPRPRPRPIDQPRP,-0.0356
23,RRIRWRPPRLPRPRPRPKGAPRP,0.732
24,RRIRVRPPRLPRPRPRPEYVPRP,-0.153
25,RRIRVRPPRLPRPRPRPQNKPRP,-0.497

row,Sequence,shrunken log2 fold change
1,RRIRQRPPRLPRPRPRPFEYPRP,-0.0368
2,RRIRWRPPRLPRPRPRPRKPPRP,0.188
3,RRIRDRPPRLPRPRPRPGIKPRP,-0.165
4,RRIRERPPRLPRPRPRPSATPRP,0.0731
5,RRIRARPPRLPRPRPRPQWQPRP,-0.00057
6,RRIRCRPPRLPRPRPRPVSEPRP,0.00852
7,RRIRQRPPRLPRPRPRPHHPPRP,0.00343
8,RRIRGRPPRLPRPRPRPKWDPRP,0.771
9,RRIRNRPPRLPRPRPRPFVAPRP,-0.41
10,RRIRWRPPRLPRPRPRPHEYPRP,-0.147
11,RRIRYRPPRLPRPRPRPVQNPRP,-0.0153
12,RRIRNRPPRLPRPRPRPELLPRP,0.0274
13,RRIRFRPPRLPRPRPRPPNWPRP,0.211
14,RRIRDRPPRLPRPRPRPRPRPRP,0.983
15,RRIRSRPPRLPRPRPRPEPGPRP,0.197
16,RRIRRRPPRLPRPRPRPMNQPRP,0.0252
17,RRIRTRPPRLPRPRPRPDTYPRP,-0.202
18,RRIRDRPPRLPRPRPRPWCAPRP,-0.0367
19,RRIRDRPPRLPRPRPRPEGSPRP,1.06
20,RRIRPRPPRLPRPRPRPQFSPRP,-0.184
21,RRIRTRPPRLPRPRPRPNRTPRP,-0.002
22,RRIRERPPRLPRPRPRPVPPPRP,0.22
23,RRIRLRPPRLPRPRPRPNECPRP,-0.0751
24,RRIRPRPPRLPRPRPRPVFVPRP,0.0959
25,RRIRFRPPRLPRPRPRPTPDPRP,0.485

row,Sequence,shrunken log2 fold change
1,RRIRRRPPRLPRPRPRPTVKPRP,0.106
2,RRIRNRPPRLPRPRPRPNGPPRP,-0.015
3,RRIRTRPPRLPRPRPRPDYAPRP,0.0553
4,RRIRTRPPRLPRPRPRPHVFPRP,-0.119
5,RRIRRRPPRLPRPRPRPYMLPRP,-0.685
6,RRIRKRPPRLPRPRPRPDVGPRP,0.0262
7,RRIRHRPPRLPRPRPRPHEYPRP,-0.293
8,RRIRCRPPRLPRPRPRPVQWPRP,0.116
9,RRIRDRPPRLPRPRPRPCSNPRP,0.0176
10,RRIRRRPPRLPRPRPRPRIWPRP,0.666
11,RRIRERPPRLPRPRPRPKLAPRP,0.00329
12,RRIRRRPPRLPRPRPRPYGIPRP,-0.161
13,RRIRGRPPRLPRPRPRPIAHPRP,0.334
14,RRIRNRPPRLPRPRPRPRISPRP,-0.408
15,RRIRPRPPRLPRPRPRPAMYPRP,0.0514
16,RRIRLRPPRLPRPRPRPYMDPRP,-0.0681
17,RRIRMRPPRLPRPRPRPHEVPRP,0.16
18,RRIRLRPPRLPRPRPRPRLRPRP,0.285
19,RRIRFRPPRLPRPRPRPAIWPRP,0.195
20,RRIRYRPPRLPRPRPRPEEDPRP,-0.0024
21,RRIRRRPPRLPRPRPRPGAIPRP,0.179
22,RRIRFRPPRLPRPRPRPDNLPRP,0.0632
23,RRIRTRPPRLPRPRPRPHCVPRP,-0.192
24,RRIRHRPPRLPRPRPRPKCRPRP,-0.163
25,RRIRDRPPRLPRPRPRPVLPPRP,0.0231
